From article PMC11362571, “Multistage protective anti-CelTOS monoclonal antibodies with cross-species sterile protection against malaria” (Nature Communications, 2024)

B1: monoclonal antibody 7g7 (IgG) [mouse] / P. vivax CelTOS (Sal-1, PVX_123510, residue L36-D196) [P. vivax] (parent complex)
chain 1: EIQLQQSGPELVKPGASVKVSCKASGYSFTDYNMYWVKQSHGKSLEWIGYIDPYNGGTRYNQKFRDKATLTVDKSSSTAFMHLNSLTSEDSAVYYCARGYYYGNPLHFDVWGAGTTVTVSSAKTTPPSVYPLAPGSAAQTNSMVTLGCLVKGYFPEPVTVTWNSGSLSSGVHTFPAVLQSDLYTLSSSVTVPSSTWPSETVTCNVAHPASSTKVDKKIVPR
chain 2: QIVLTQSPAIMSASPGEKVTMTCSASSSVSYIHWYQQKSGTSPKRWIYDTSKLASGVPARFSGSGSGTSYSLTISSMEAEDAATYYCQQWISYPATFGAGTKLELKRADAAPTVSIFPPSSEQLTSGGASVVCFLNNFYPKDINVKWKIDGSERQNGVLNSWTDQDSKDSTYSMSSTLTLTKDEYERHNSYTCEATHKTSTSPIVKSFNRNEC
chain 3: LRGKSGSTASSSLEGGSEFSERIGNSLSSFLSESASLEVIGNELADNIANEIVSSLQKDSASFLQSGFDVKTQLKATAKKVLVEALKAALEPTEKIVASTIKPPRVSEDAYFLLGPVVKTLFNKVEDVLHKPIPDTIWEYESKGSLEEEEAEDEFSDELLD
B2: monoclonal antibody 4h12 (IgG) [mouse] / P. falciparum CelTOS (3D7, PF3D7_1216600, residue F25-D182) [P. falciparum] (parent complex)
chain 1: QVQLQQSGPELVKPGASVKISCKASGYALSSSWLNWVKQRPGQGLEWIGRIFPGDGDTNYNGKFKGKATLTADKSSSTAYLQLSSLTSVDSAVYFCARGGTVVFDYWGQGTTLTVSSAKTTPPSVYPLAPGSAAQTNSMVTLGCLVKGYFPEPVTVTWNSGSLSSGVHTFPAVLQSDLYTLSSSVTVPSSTWPSETVTCNVAHPASSTKVDKKIVPRD
chain 2: DIVMTQSHKFMSTSVGDRVNITCKASQDVGIAVAWYQQRPGQSPKLLIYWASKRHTGVHDRFTGTGSGTDFTLTISTVQSEDLADYFCQQYSNSLTFGAGTTLELSRADAAPTVSIFPPSSEQLTSGGASVVCFLNNFYPKDINVKWKIDGSERQNGVLNSWTDQDSKDSTYSMSSTLTLTKDEYERHNSYACEATHKTSTSPIVKSFNR
chain 3: FRGNNGHNSSSSLYNGSQFIEQLNNSFTSAFLESQSMNKIGDDLAETISNELVSVLQKNSPTFLESSFDIKSEVKKHAKSMLKELIKVGLPSFENLVAENVKPPKVDPATYGIIVPVLTSLFNKVETAVGAKVSDEIWNYNSPDVSESEESLSDDFFD

Variants of: B1
Experiment: ELISA; parent: 100; read off a plot
With chain 3 E14A, chain 3 G15A, chain 3 G16A the percent of parent was roughly 100%. In the case of chain 3 K102A, chain 3 P103A, chain 3 P104A, the percent of parent is reported as roughly 86%. In the case of chain 3 W138A, chain 3 E139A, chain 3 Y140A, the percent of parent is reported as roughly 1%. chain 3 S60A, chain 3 S62A was tested, and the percent of parent was roughly 100%. chain 3 G115A, chain 3 P116A, chain 3 V117A gave a percent of parent of roughly 94%. Variant chain 3 G16A, chain 3 S17A, chain 3 E18A has a percent of parent of roughly 98%. chain 3 F112A, chain 3 L113A, chain 3 L114A showed a percent of parent of roughly 50%. With chain 3 S32A, chain 3 E33A, chain 3 S34A the percent of parent was roughly 83%. chain 3 R105A, chain 3 V106A, chain 3 S107A gave a percent of parent of roughly 77%. chain 3 S36A, chain 3 L37A was tested, and the percent of parent was roughly 93%. Work on chain 3 P132A, chain 3 I133A, chain 3 P134A yielded a percent of parent of roughly 1%. Variant chain 3 S29A, chain 3 F30A, chain 3 L31A has a percent of parent of roughly 100%. Variant chain 3 E108A, chain 3 D109A has a percent of parent of roughly 68%. chain 3 Q57A, chain 3 K58A, chain 3 D59A showed a percent of parent of roughly 98%. chain 3 L129A, chain 3 H130A, chain 3 K131A showed a percent of parent of roughly 1%. For chain 3 G67A, chain 3 F68A, chain 3 D69A, the percent of parent was roughly 99%. chain 3 F63A, chain 3 L64A, chain 3 Q65A gave a percent of parent of roughly 100%.

Variants of: B2
Experiment: ELISA; parent: 100; read off a plot
In the case of chain 3 Q35A, chain 3 S36A, chain 3 M37A, the percent of parent is reported as roughly 100%. In the case of chain 3 D135A, chain 3 E136A, chain 3 I137A, the percent of parent is reported as roughly 98%. chain 3 K132A, chain 3 V133A, chain 3 S134A showed a percent of parent of roughly 99%. chain 3 P108A gave a percent of parent of roughly 96%. With chain 3 W138A, chain 3 N139A, chain 3 Y140A the percent of parent was roughly 93%. chain 3 S67A, chain 3 F68A, chain 3 D69A gave a percent of parent of roughly 94%. Variant chain 3 Y14A, chain 3 N15A, chain 3 G16A has a percent of parent of roughly 96%. For chain 3 F63A, chain 3 L64A, chain 3 E65A, the percent of parent was roughly 0%. Variant chain 3 Q57A, chain 3 K58A, chain 3 N59A has a percent of parent of roughly 1%. chain 3 V129A, chain 3 G130A gave a percent of parent of roughly 100%. With chain 3 S60A, chain 3 P61A, chain 3 T62A the percent of parent was roughly 27%. chain 3 G112A, chain 3 I113A, chain 3 I114A was tested, and the percent of parent was roughly 98%. chain 3 G16A, chain 3 S17A, chain 3 Q18A was tested, and the percent of parent was roughly 93%. chain 3 I70A, chain 3 K71A, chain 3 S72A, chain 3 E73A gave a percent of parent of roughly 75%. chain 3 L32A, chain 3 E33A, chain 3 S34A was tested, and the percent of parent was roughly 91%. chain 3 S29A, chain 3 F31A was tested, and the percent of parent was roughly 92%.
